Each block holds one binder with its values, some of them ahead of it.
What was measured:
[1] = target: DmORC Orc1deltaN;DmCdc6deltaN241 (Drosophila melanogaster;Drosophila …, UniProt O16810;Q24168;Q7K2L1;Q9W102;Q24169;Q9Y1B2;Q9VSM9 …, |del1-241); experiment: cryo-EM; ATP, Mg2+; Anisotropy: 1 nM dsDNA, 25 mM HEPES-KOH pH 7.6, 300 mM K-glutamate, 10 mM Mg-acetate, 10% glycerol, 0.1% NP40, 1 mM DTT, 0.1 mg/mL BSA, 0 or 1 mM ATP, 25 C, 40; details: protein: recombinant;recombinant; tags: tags cleaved;6xHis-MBP cleaved by TEV; copies: 1;1;1;1;1;1;1; blunt
Chain of DmORC Orc1deltaN;DmCdc6deltaN241 (chain, as listed by the source |del1-241 | mutant, chain 4 of 3): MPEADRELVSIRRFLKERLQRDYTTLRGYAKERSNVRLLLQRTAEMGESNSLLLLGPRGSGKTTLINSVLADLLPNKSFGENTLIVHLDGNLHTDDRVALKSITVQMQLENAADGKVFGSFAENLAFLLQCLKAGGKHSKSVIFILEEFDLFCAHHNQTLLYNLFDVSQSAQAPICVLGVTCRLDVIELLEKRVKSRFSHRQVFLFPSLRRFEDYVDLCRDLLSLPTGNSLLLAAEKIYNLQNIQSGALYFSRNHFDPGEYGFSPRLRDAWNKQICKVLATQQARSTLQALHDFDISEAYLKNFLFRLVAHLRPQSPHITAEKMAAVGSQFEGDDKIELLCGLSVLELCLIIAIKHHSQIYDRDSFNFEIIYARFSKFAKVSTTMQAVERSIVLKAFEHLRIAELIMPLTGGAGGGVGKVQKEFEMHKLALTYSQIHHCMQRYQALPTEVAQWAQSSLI
Chain of DmORC Orc1deltaN;DmCdc6deltaN241 (Q24169 whole entry, stated change not applied, chain 5 of 3): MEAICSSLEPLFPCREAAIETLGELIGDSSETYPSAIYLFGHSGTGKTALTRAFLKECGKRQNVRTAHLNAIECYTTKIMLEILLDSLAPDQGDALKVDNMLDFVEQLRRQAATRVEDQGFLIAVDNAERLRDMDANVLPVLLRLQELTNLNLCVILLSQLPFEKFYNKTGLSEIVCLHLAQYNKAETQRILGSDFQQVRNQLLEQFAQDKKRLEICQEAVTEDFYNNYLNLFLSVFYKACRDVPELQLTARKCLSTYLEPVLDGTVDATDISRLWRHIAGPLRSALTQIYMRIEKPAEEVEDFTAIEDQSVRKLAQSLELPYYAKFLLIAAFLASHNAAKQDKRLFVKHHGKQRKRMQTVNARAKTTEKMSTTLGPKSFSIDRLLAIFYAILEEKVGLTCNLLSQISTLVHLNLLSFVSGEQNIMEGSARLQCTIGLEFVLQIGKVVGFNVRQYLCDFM
Chain of DmORC Orc1deltaN;DmCdc6deltaN241 (Q9Y1B2 whole entry, stated change not applied, chain 6 of 3): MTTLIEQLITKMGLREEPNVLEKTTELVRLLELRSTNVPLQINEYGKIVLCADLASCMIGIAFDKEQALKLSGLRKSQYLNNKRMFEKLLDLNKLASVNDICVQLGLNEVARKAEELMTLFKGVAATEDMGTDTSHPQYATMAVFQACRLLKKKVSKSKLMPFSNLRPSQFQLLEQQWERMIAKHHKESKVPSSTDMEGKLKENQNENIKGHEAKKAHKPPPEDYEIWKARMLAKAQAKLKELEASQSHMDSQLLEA

[2] = target: T1, Drosophila Orc3, subunit of DmORC^Orc1ΔN (Drosophila, UniProt Q7K2L1 1-721); experiment: cryo-EM structure; DmORC^Orc1ΔN (2.5 μM), duplex DNA (3 μM; 60 bp AT-rich, 84 bp AT-rich, 60 bp poly(dA·dT) or 60 bp GC-rich) and DmCdc6ΔN (6.8 μM) assembled at 25 °C in 25 mM HEPES-KOH pH 7.6, 250 mM potassium acetate, 10 mM magnesium acetate, 1 mM DTT, 1 mM ATP; purified by gel filtration; details: both partners purified
T1 construct: Orc3, Drosophila; only Orc1 is named as truncated in DmORC^Orc1ΔN; also called DmOrc3; source: Hi5 insect cells, co-expressed with the other ORC subunits, purified as part of DmORC^Orc1ΔN
T1 sequence: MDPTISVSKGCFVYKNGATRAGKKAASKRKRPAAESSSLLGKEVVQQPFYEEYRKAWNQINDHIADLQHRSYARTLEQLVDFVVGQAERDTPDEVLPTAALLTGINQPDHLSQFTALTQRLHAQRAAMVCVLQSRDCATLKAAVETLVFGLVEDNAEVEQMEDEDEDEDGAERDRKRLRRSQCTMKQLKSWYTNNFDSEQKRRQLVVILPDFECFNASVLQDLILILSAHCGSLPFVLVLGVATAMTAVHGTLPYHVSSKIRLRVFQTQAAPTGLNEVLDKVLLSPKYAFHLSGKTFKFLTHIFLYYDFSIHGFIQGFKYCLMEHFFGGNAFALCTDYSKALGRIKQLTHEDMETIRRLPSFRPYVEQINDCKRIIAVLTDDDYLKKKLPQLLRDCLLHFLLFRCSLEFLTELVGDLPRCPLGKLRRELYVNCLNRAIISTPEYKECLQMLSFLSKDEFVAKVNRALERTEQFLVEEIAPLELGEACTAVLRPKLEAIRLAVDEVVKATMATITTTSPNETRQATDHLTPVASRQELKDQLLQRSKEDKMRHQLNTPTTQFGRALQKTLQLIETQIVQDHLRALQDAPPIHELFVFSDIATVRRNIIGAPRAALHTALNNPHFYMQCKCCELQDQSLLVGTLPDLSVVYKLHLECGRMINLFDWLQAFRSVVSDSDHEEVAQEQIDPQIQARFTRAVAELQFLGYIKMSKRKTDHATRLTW

[3] = target: T2, Drosophila origin recognition complex with N-terminally truncated Orc1 (DmORC^Orc1ΔN) (Drosophila, UniProt O16810 440-924; Q24168 1-618; Q7K2L1 1-721; Q9W102 1-459; Q24169 1-460; Q9Y1B2 …); experiment: as above; details: both partners purified
T2 construct: Orc1, Drosophila, without the N-terminal 439 amino acid residues (Orc1ΔN); Orc2, Drosophila; only Orc1 is named as truncated in DmORC^Orc1ΔN; Orc3, Drosophila; Orc4, Drosophila; Orc5, Drosophila; Orc6, Drosophila; full-length DmOrc6 was used to reconstitute the binary and ternary complexes; Heterohexamer used for cryo-EM and for the pull-down with Cdc6ΔN; also called truncated DmORC; not shown: …
T2 sequence (chain, as listed by the source mutant, chain 4 of 3): as the sequence (chain, as listed by the source |del1-241 | mutant, chain 4 of 3) above
T2 sequence (Q24169 whole entry, stated change not applied, chain 5 of 3, the tested form may be a part): as the sequence (Q24169 whole entry, stated change not applied, chain 5 of 3) above
T2 sequence (Q9Y1B2 whole entry, stated change not applied, chain 6 of 3, the tested form may be a part): as the sequence (Q9Y1B2 whole entry, stated change not applied, chain 6 of 3) above

[4] = target: T3, Drosophila Orc1 lacking the N-terminal 439 residues (Orc1ΔN), subunit of DmORC^Orc1ΔN (Drosophila, UniProt O16810 440-924); experiment: as above; details: both partners purified
T3 construct: Orc1, Drosophila, without the N-terminal 439 amino acid residues; also called DmOrc1; source: Hi5 insect cells, co-expressed with the other ORC subunits, purified as part of DmORC^Orc1ΔN; not shown: 6xHis, N-terminal, cleaved
T3 sequence (looked up): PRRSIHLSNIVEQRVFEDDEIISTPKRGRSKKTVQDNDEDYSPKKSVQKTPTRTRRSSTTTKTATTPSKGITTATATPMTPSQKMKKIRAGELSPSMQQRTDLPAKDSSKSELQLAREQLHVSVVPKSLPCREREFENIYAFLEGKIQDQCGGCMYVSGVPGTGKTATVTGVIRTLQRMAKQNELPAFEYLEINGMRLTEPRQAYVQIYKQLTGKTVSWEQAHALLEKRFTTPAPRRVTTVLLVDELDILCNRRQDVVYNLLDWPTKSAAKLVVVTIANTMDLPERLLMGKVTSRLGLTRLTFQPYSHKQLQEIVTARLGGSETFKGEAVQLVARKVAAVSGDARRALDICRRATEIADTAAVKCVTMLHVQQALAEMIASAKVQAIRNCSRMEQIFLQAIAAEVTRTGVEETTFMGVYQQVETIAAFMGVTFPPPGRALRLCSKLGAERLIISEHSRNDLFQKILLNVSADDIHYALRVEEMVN

[5] = target: T4, Drosophila Orc2, subunit of DmORC^Orc1ΔN (Drosophila, UniProt Q24168 1-618); experiment: as above; details: both partners purified
T4 construct: Orc2, Drosophila; only Orc1 is named as truncated in DmORC^Orc1ΔN; also called DmOrc2; source: Hi5 insect cells, co-expressed with the other ORC subunits, purified as part of DmORC^Orc1ΔN
T4 sequence: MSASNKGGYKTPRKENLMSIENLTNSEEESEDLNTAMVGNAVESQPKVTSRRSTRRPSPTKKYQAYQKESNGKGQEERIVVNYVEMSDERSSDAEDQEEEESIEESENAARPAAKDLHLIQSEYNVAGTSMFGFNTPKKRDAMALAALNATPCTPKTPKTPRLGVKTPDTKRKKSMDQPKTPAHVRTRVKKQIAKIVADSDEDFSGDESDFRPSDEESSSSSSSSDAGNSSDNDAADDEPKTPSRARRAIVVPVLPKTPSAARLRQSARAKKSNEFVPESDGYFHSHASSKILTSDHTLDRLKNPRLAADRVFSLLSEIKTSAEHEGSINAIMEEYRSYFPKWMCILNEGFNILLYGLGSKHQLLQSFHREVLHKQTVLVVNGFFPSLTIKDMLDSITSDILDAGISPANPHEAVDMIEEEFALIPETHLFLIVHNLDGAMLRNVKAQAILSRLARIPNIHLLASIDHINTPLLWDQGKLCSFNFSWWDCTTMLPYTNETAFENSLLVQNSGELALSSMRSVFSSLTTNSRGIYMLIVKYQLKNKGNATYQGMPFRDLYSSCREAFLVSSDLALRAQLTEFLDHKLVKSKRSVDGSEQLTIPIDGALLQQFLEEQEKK

[6] = target: T2, Drosophila origin recognition complex …; experiment: pull-down; MBP-DmCdc6 or 6xHis-MBP-DmCdc6ΔN (200 nM) as bait on amylose beads; DmORC (100 nM) with 60 bp AT-rich dsDNA (100 nM); 25 mM HEPES-KOH pH 7.6, 300 mM potassium glutamate, 10 mM magnesium acetate, 10% glycerol, 1 mM DTT, 0 or 1 mM ATP; 25 °C; SDS-PAGE and silver staining; details: both partners purified

B1: 60 bp GC-rich (70% GC) (dsDNA)
DNA 1: GGGGCTCGACTCCAAGTGCGGGGCACTCGTCTGTGAGGGGGCTCAGTTCGCACTGCGGGG
DNA 2: CCCCGCAGTGCGAACTGAGCCCCCTCACAGACGAGTGCCCCGCACTTGGAGTCGAGCCCC
binding result [1]: binds

B2: 84 bp AT-rich (dsDNA)
DNA 1: TTTGTGCACTTGCCTGCAGGCCTTTTGAAAAGCAAGCATAAAAGATCTAAACATAAAATCTGTAAAATAACAAGATGTAAAGAT
DNA 2: ATCTTTACATCTTGTTATTTTACAGATTTTATGTTTAGATCTTTTATGCTTGCTTTTCAAAAGGCCTGCAGGCAAGTGCACAAA
binding result [1]: binds

binding result [2]: binds | binding result [3]: binds | binding result [4]: binds | binding result [5]: binds
B3: N-terminally truncated Drosophila Cdc6 (DmCdc6ΔN241), tags removed (domain or fragment, UniProt Q9VSM9 242-662, looked up)
chain: NNLPSPSRNKYQNARRVLNSAETQNLPGRESQLQELREFFSNHLESQTSGSLYVSGQPGTGKTACLSLLLRDPDFSKRLQRVYINCTSIASVGAVYKKLCTELQLKVSGRTERDHLEAIQRHLKTAKRMLLLVLDEIDQLCTSRQEVLYTIFEWPALPGSRILLVGIANSLDLTDRALMRLNARCELKPRLMHFPPYSKQQIVEIFKSRLAEAEVLDVFPPVTLQLLAAKVSAISGDVRRALDIGRRVVEIAEQQKRDGEKEFNMKALQLEGKDAVEAKEKQDTLKPVQVTQVAAVLNKVYGASQNLEEDIEASFPLQQKLMLCTLVLMLRNERNKDISMGRLHEVYRRVCAKRNILALDQAEFTGTVDLVETRGILRIMRKKEPRLHKVLLQWDEEEVHAALSDKQLIASILSDTACLSK
notes: Cdc6, Drosophila, ΔN241, amino acids 242-662; not shown: 6xHis, N-terminal, cleaved; MBP, N-terminal, cleaved

binding result [6]: binds
B4: 6xHis-MBP-tagged N-terminally truncated Drosophila Cdc6 (6xHis-MBP-DmCdc6ΔN241) (domain or fragment, UniProt Q9VSM9 242-662, looked up)
chain: NNLPSPSRNKYQNARRVLNSAETQNLPGRESQLQELREFFSNHLESQTSGSLYVSGQPGTGKTACLSLLLRDPDFSKRLQRVYINCTSIASVGAVYKKLCTELQLKVSGRTERDHLEAIQRHLKTAKRMLLLVLDEIDQLCTSRQEVLYTIFEWPALPGSRILLVGIANSLDLTDRALMRLNARCELKPRLMHFPPYSKQQIVEIFKSRLAEAEVLDVFPPVTLQLLAAKVSAISGDVRRALDIGRRVVEIAEQQKRDGEKEFNMKALQLEGKDAVEAKEKQDTLKPVQVTQVAAVLNKVYGASQNLEEDIEASFPLQQKLMLCTLVLMLRNERNKDISMGRLHEVYRRVCAKRNILALDQAEFTGTVDLVETRGILRIMRKKEPRLHKVLLQWDEEEVHAALSDKQLIASILSDTACLSK
notes: Cdc6, Drosophila, ΔN241, amino acids 242-662; also called 6xHis-MBP-tagged DmCdc6ΔN241; source: TEV cleavage omitted; not shown: 6xHis, N-terminal, kept; MBP, N-terminal, kept
